Columns and labels:
human IL-2Rβ (CD122) = target: T1, human IL-2Rβ (CD122) (human, UniProt P14784 27-239); assay: BLI (OCTET RED96), receptor loaded on biosensor, global fitting
T1 construct: also called hIL-2Rβ
T1 sequence: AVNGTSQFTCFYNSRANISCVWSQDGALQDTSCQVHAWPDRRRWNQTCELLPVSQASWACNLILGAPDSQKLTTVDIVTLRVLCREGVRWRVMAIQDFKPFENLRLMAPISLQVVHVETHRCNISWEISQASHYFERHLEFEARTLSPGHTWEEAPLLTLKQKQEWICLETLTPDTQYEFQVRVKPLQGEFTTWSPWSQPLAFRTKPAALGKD
Protocol: (§1) OCTET® RED96 was used to characterize the interactions of anti-HSA-hIL-2 fusion proteins with human IL-2Rα (CD25) and IL-2Rβ (CD122). Briefly, hIL-2Rα and hIL-2Rβ were each loaded onto a biosensor. Each biosensor was then dipped into a solution containing an anti-HSA-hIL-2 fusion protein at 10 to 2,000 nM. Primary experimental data was analyzed with global fitting to determine a binding affinity (Kd).

human IL-2Rα (CD25) [1] = target: T2, human IL-2Rα (CD25) (human, UniProt P01589 22-240, limits assumed); assay: BLI (OCTET RED96), hIL-2Rα loaded on the biosensor, fusion protein in solution at 33.3, 100 and 300 nM
T2 construct: also called hIL-2Rα
T2 sequence: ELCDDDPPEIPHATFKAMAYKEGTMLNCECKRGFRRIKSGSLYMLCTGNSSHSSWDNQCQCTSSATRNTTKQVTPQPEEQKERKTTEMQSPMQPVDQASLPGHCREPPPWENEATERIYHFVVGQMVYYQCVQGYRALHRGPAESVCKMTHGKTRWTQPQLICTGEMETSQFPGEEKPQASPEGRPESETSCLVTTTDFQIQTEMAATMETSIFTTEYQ
Protocol: as §1

human IL-2Rα (CD25) [2] = target: T2, human IL-2Rα (CD25); assay: BLI (OCTET RED96), receptor loaded on biosensor, fusion protein in solution
Protocol: as §1

B1: Anti-HSA-IL-2 A2 (IL-2-IL15 chimera 12) (other)
chain: QVQLVESGGGVVQPGGSLRLSCAASGFAFRGFGMSWVRQAPGKGLEWVSSINNGGSDTYYADSVKGRFTISRDNSKNTLYLQMNSLRAEDTAVYYCAIGGPGASPSGQGTQVTVSSGGGGSGGGGSGGGGSAPTSSSTKKTQLQLKHLLLDLQMILNGIQSMHIDATTFKFYMPKKATELKHLQCLEEELKPLEEVLNLAQSKNFHLRPRDLISNINVIVLELKGSETTFMCEYADETATIVEFLNRWITFSQSIISTLT
notes: E15K, C125S); Produced in CHO cells; also called anti-HSA-hIL-2 fusion protein A2
**Q.** Which results are given for B1?
**A.** Kd (human IL-2Rβ (CD122)): 139 nM; binding result (human IL-2Rα (CD25) [1]): no binding (tested: 300 nM)

B2: Anti-HSA-IL-2 A1 (IL-2-IL15 chimera 7) (other)
chain: QVQLVESGGGVVQPGGSLRLSCAASGFAFRGFGMSWVRQAPGKGLEWVSSINNGGSDTYYADSVKGRFTISRDNSKNTLYLQMNSLRAEDTAVYYCAIGGPGASPSGQGTQVTVSSGGGGSGGGGSGGGGSAPTSSSTKKTQLQLKHLLLDLQMILNGIQSMEIDATTFKFYMPKKATELKHLQCLEEELKPLEEVLNLAQSKNFHLRPRDLISNINVIVLELKGSETTFMCEYADETATIVEFLNRWITFSQSIISTLT
notes: E15K, C125S); Produced in CHO cells; also called anti-HSA-hIL-2 fusion protein A1
**Q.** For B2, which Kd (human IL-2Rβ (CD122)) is on record?
**A.** 55 nM

**Q.** Does B2 bind (human IL-2Rα (CD25) [2])?
**A.** no binding (tested: 10 to 2,000 nM)

B3: Anti-HSA-IL-2 A15 (IL-2-IL15 chimera 12) (other)
chain: QVQLVESGGGVVQPGGSLRLSCAASGFAFRGFGMSWVRQAPGKGLEWVSSINNGGSDTYYADSVKGRFTISRDNSKNTLYLQMNSLRAEDTAVYYCAIGGPGASPSGQGTQVTVSSASTKGGGGGSGGGGSAPTSSSTKKTQLQLKHLLLDLQMILNGIQSMHIDATTFKFYMPKKATELKHLQCLEEELKPLEEVLNLAQSKNFHLRPRDLISNINVIVLELKGSETTFMCEYADETATIVEFLNRWITFSQSIISTLT
notes: Produced in CHO cells; also called anti-HSA-hIL-2 fusion protein A15
**Q.** B3 was tested. Which Kd (human IL-2Rβ (CD122)) did it give?
**A.** 94 nM

**Q.** Does B3 bind (human IL-2Rα (CD25) [2])?
**A.** no binding (tested: 10 to 2,000 nM)

B4: Anti-HSA-IL-2 A4 (IL-2-IL15 chimera 12) (other)
chain: EVQLVESGGGLVQPGGSLRLSCAASGSTWSINTLAWYRQAPGKQRDLVARISSGGSTYYADSVKGRFTISRDNSKNTLYLQMNSLRAEDTAVYYCYAQSTWYPPSWGQGTLVTVSSGGGGSGGGGSGGGGSAPTSSSTKKTQLQLKHLLLDLQMILNGIQSMHIDATTFKFYMPKKATELKHLQCLEEELKPLEEVLNLAQSKNFHLRPRDLISNINVIVLELKGSETTFMCEYADETATIVEFLNRWITFSQSIISTLT
notes: Produced in CHO cells; also called anti-HSA-hIL-2 fusion protein A4
**Q.** Does B4 bind (human IL-2Rα (CD25) [1])?
**A.** no binding (tested: 300 nM)

B5: Anti-HSA-IL-2 A3 (IL-2-IL15 chimera 7) (other)
chain: EVQLVESGGGLVQPGGSLRLSCAASGSTWSINTLAWYRQAPGKQRDLVARISSGGSTYYADSVKGRFTISRDNSKNTLYLQMNSLRAEDTAVYYCYAQSTWYPPSWGQGTLVTVSSGGGGSGGGGSGGGGSAPTSSSTKKTQLQLKHLLLDLQMILNGIQSMEIDATTFKFYMPKKATELKHLQCLEEELKPLEEVLNLAQSKNFHLRPRDLISNINVIVLELKGSETTFMCEYADETATIVEFLNRWITFSQSIISTLT
notes: Produced in CHO cells; also called anti-HSA-hIL-2 fusion protein A3
**Q.** Does B5 bind (human IL-2Rα (CD25) [2])?
**A.** no binding (tested: 10 to 2,000 nM)

B6: Anti-HSA-IL-2 A17 (IL-2-IL15 chimera 12) (other)
chain: EVQLVESGGGLVQPGGSLRLSCAASGSTWSINTLAWYRQAPGKQRDLVARISSGGSTYYADSVKGRFTISRDNSKNTLYLQMNSLRAEDTAVYYCYAQSTWYPPSWGQGTLVTVSSASTKGGGGGSGGGGSAPTSSSTKKTQLQLKHLLLDLQMILNGIQSMHIDATTFKFYMPKKATELKHLQCLEEELKPLEEVLNLAQSKNFHLRPRDLISNINVIVLELKGSETTFMCEYADETATIVEFLNRWITFSQSIISTLT
notes: Produced in CHO cells; also called anti-HSA-hIL-2 fusion protein A17
**Q.** Does B6 bind (human IL-2Rα (CD25) [2])?
**A.** no binding (tested: 10 to 2,000 nM)

Reference: US20240417453A1 (ANWITA BIOSCIENCES, published 2024)
